Assay results from patent US20040123344A1, “Novel gene encoding an f-box protein which regulates leaf longevity in arabidopsis thaliana and mutant gene thereof” (priority 2000, published 2004).

What was measured:
GST-ASK1 fusion protein = biological target: T1, GST-ASK1 fusion protein (Arabidopsis thaliana, UniProt Q39255); experiment: In vitro binding assay with GST-ASK1 fusion protein; conditions: 35S-labeled in vitro translation product; glutathione beads; GST as negative control
T1 construct: made in house; host or cells: Escherichia coli BL21(DE3) pLysS
T1 sequence (Q39255 1-160): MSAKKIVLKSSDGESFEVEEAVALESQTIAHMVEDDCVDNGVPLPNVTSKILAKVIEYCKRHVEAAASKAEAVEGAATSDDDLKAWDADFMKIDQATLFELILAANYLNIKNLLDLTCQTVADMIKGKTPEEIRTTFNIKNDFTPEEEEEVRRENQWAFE
From the text: In order to examine that ORE9 protein or derivatives thereof directly bind with ASK1, a GST-ASK1 fusion protein and a ^35S-labeled ORE9 protein produced by in vitro translation were subjected to in vitro binding assay. To obtain a glutathione S-transferase (GST) protein and a GST-ASK1 fusion protein, a vector pGEX (APBiotech, Co.) and a vector pGEX-ASK1 were constructed, which express the above proteins, respectively. Artificial sequences represented by SEQ ID NO: 14 and SEQ ID NO: 15 were used as PCR primers to amplify a gene encoding the ASK1 fragment. The resulting PCR product was digested with EcoRI and NcoI restriction enzymes, and inserted into the restriction enzyme sites of the pGEX vector. Escherichia coli BL21(DE3) pLysS was transformed with the resulting two vectors, and GST and GST-ASK1 fusion proteins were expressed. The GST and GST-ASK1 fusion proteins were purified by chromatography with glutathione-Sepharose 4B beads. The purified proteins was subjected to electrophoresis with SDS-polyacryamide gets, dyed with Coomassie blue, and measured for their amount. GST and GST-ASK1 fusion proteins of the same amount were added to glutathione beads, which had been previously washed with 10-fold volume of B buffer (20 mM […], pH 7.6, 150 mM sodium chloride, 10% glycerol, 0.5% NP-40, 1 mM DTT) three times. Then, the resulting proteins were adsorbed 4° C. for one hour using a rotating mixer. The provided beads were washed with 1 ml B buffer three times, and then stored in a state where the ratio of slurries relative to B buffer is 50%.
Meanwhile, a radioactivity-labeled ORE9 (1-693), the mutant type ore9 and ORE9 derivatives (1-327 and 50-693) were prepared using the in vitro transcription/translation system (Promega, USA) and [^35S]-methionine (DuPont NEN, USA). The proteins were quantitatively analyzed with SDS-PAGE and BAS radioanalytic imaging system (Japan). Then, the respective ^35S-labeled translation products of the same amount were mixed with 60 μl GST-adsorbed beads or GST-ASK1 fusion protein-absorbed beads, contained in 1 ml GB buffer (final concentration: 20 mM Tris-HCl, pH 7.5, 0.15% NP-40, 150 mM NaCl, 1 mM EDTA). The resulting beads were cultured in a rotating mixer at 4° C. for two hours, and then washed with 1 ml GB buffer four times. The washed beads were added with 30 μl of 2×SDS sample solutions, boiled for three minutes and then isolated with SDS-PAGE. The resulting gels were dried to dryness, and then exposed to X-ray film.

ASK1(1-160) = biological target: T2, ASK1(1-160) (Arabidopsis thaliana, UniProt Q39255); experiment: Yeast two-hybrid assay with ASK1; type: cell-based; conditions: HF7c yeast; for binding with ASK1 in yeast two-hybrid assay: GAL4-BD fusion
T2 construct: constructing the plasmid pGAD424-ASK1(1-160)[3] expressing fusion protein of ASK1 and GAL4-4AD; expressed in transfected cells; host or cells: Saccharomyces cerevisiae HF7c
T2 sequence (Q39255 1-160): T1 sequence (Q39255 1-160)
From the text: As expression vectors of expressing GAL4 DNA binding domain (GAL4-BD) and ORE9 fusion protein, plasmids pGBT9-ORE9 (1-49) and pGBT9-ORE9 (50-693) were constructed. The plasmid pGBT9-ORE9 expresses a fragment of ORE9 containing N-terminal 1-49th amino acids corresponding to an F-box region of ORE9, and the plasmid pGBT9-ORE9 (50-693) expresses a fragment of ORE9 containing 50-693th amino acids from which the F-box region was removed.
First, the gene encoding the ORE9 (1-49) fragment was amplified by PCR using a primer represented by SEQ ID NO: 10 and SEQ ID NO: 11, and then inserted into BamHI and PstI restriction enzyme sites of pGBT9 (Clontech, USA) containing a 4-BD gene and a tryptophan auxotrophic selection marker gene (TRP1), thereby constructing the plasmid pGBT9-ORE9 (1-49). Similarly, the plasmid pGBT 9-ORE9 (50-693) was constructed, which expresses an ORE9 (50-693) fragment and a GAL4-BD fusion protein. In this case, oligonucletides represented by SEQ ID NO: 12 and SEQ ID NO: 13 were used as PCR primers to amplify the gene encoding the ORE9 (50-693) fragment.
Meanwhile, regarding ASK1(1-160) and ASK2(1-172) proteins used for identification of binding, pGAD424-ASK1(1-160) and pGAD424-ASK2(1-172) were constructed in such a manner that ASK1(1-160) and ASK2(1-172) are expressed in the form of a fusion protein with a […]. pGTE-ASK1(1-160) containing an ASK1(1-160) gene was digested with BamHI and PstI, and then inserted into pGAD424 (Clontech, USA) containing a GAL4-AD gene and a leucine auxotrophic selection marker gene (LEU2), thereby constructing the plasmid pGAD424-ASK1(1-160)[3] expressing fusion protein of ASK1 and GAL4-4AD. Similarly, the plasmid pGAD424-ASK2(1-172)[4] was constructed by inserting a BamHI/PstI fragment of pGTE-ASK2(1-172) into pGAD424.
Yeast strains, HF7c, were cultured in an YPD (yeast extract, peptone, dextrose) medium or a synthetic minimal medium (SD) containing 2% dextrose.
The HF7c yeast strains grown in the medium were transformed with different combinations of the vectors constructed in the above Example 6-1) ([1+3], [2+3] and [1+4]; see the left upper portion of FIG. 7b), respectively, by the lithium acetate method (Feilotter et al., 1994). The transformants were selected in a synthetic minimal medium containing 2% dextrose. The transformants were cultured in a SD medium from which tryptophan and leucine were removed (see the right upper portion of FIG. 7b), and in a SD medium from which tryptophan, leucine and histidine were removed and which contains 2 mM 3-amino-1,2,4-triazole (3-AT) (see the left lower portion of FIG. 7b).
The transformants were grown in a synthesis minimal medium, and the grown yeast colonies were examined for β-galactosidase activities on a filter paper. […]

B1: ORE9 (1-693): complete ORE9 protein, 693 amino acids, F-box motif and 18 LRRs, SEQ ID NO: 2 (protein, listed as Arabidopsis thaliana)
chain: MASTTLSDLPDVILSTISSLVSDSRARNSLSLVSHKFLALERSTRSHLTIRGNARDLSLVPDCFRSISHLDLSFLSPWGHTLLASLPIDHQNLLALRLKFCFPFVESLNVYTRSPSSLELLLPQWPRIRHIKLLRWHQRASQIPTGGDFVPIFEHCGGFLESLDLSNFYHWTEDLPPVLLRYADVAARLTRLDLLTASFTEGYKSSEIVSITKSCPNLKTFRVACTFDPRYFEFVGDETLSAVATSSPKLTLLHMVDTASLANPRAIPGTEAGDSAVTAGTLIEVFSGLPNLEELVLDVGKDVKHSGVALEALNSKCKKLRVLKLGQFQGVCSATEWRRLDGVALCGGLQSLSIKNSGDLTDMGLVAIGRGCCKLTTFEIQGCENVTVDGLRTMVSLRSKTLTDVRISCCKNLDTAASLKAIEPICDRIKRLHIDCVWSGSEDEEVEGRVETSEADHEEEDDGYERSQKRCKYSFEEEHCSTSDVNGFCSEDRVWEKLEYLSLWINVGEFLTPLPMTGLDDCPNLEEIRIKIEGDCRGKRRPAEPEFGLSCLALYPKLSKMQLDCGDTIGFALTAPPMQMDLSLWERFFLTGIGSLSLSELDYWPPQDRDVNQRSLSLPGAGLLQECLTLRKLFIHGTAHEHFMNFLLRIPNLRDVQLRADYYPAPENDMSTEMRVGSCSRFEDQLNSRNIID
B1 was tested, and the “binding (co-precipitation) with GST-ASK1” value (GST-ASK1 fusion protein) was “directly bound to ASK1” and the “binding with ASK1 in yeast two-hybrid assay” value (ASK1(1-160)) was “did not exhibit positive signals for binding to ASK1”.

B2: ORE9(1-49): fragment of ORE9 containing N-terminal 1-49th amino acids corresponding to the F-box region (protein)
chain: MKLLSSIEQACDICRLKKLKCSKEKPKCAKCLKNNWECRYSPKTKRSPLTRAHLTEVESRLERLEQLFLLIFPREDLDMILKMDSLQDIKALLTGLFVQDNVNKDAVTDRLASVETDMPLTLRQHRISATSSSEESSNKGQRQLTVSMASTTLSDLPDVILSTISSLVSDSRARNSLSLVSHKFLALERSTRSHLT
With B2 the “growth of transformed yeast in histidine deficient medium” value (ASK1(1-160); GAL4-BD fusion with GAL4-AD-ASK1(1-160), SD medium without tryptophan, leucine, histidine, 2 mM 3-AT) was “grown in the histidine deficient medium” and the “β-galactosidase activity of transformed yeast” value (ASK1(1-160); with ASK1(1-160) plasmid, X-gal filter assay) was “exhibit the β-galactosidase activity”.

B3: ORE9 (1-327): part of ORE9 (1-327) containing the F-box region (protein, UniProt Q9SIM9 1-327, looked up, fragment)
chain: MASTTLSDLPDVILSTISSLVSDSRARNSLSLVSHKFLALERSTRSHLTIRGNARDLSLVPDCFRSISHLDLSFLSPWGHTLLASLPIDHQNLLALRLKFCFPFVESLNVYTRSPSSLELLLPQWPRIRHIKLLRWHQRASQIPTGGDFVPIFEHCGGFLESLDLSNFYHWTEDLPPVLLRYADVAARLTRLDLLTASFTEGYKSSEIVSITKSCPNLKTFRVACTFDPRYFEFVGDETLSAVATSSPKLTLLHMVDTASLANPRAIPGTEAGDSAVTAGTLIEVFSGLPNLEELVLDVGKDVKHSGVALEALNSKCKKLRVLKLGQ
For B3, the “binding (co-precipitation) with GST-ASK1” value (GST-ASK1 fusion protein) was “co-precipitated with the GST-ASK1 fusion protein”.

B4: ORE9 (50-693): fragment of ORE9 containing 50-693th amino acids from which the F-box region was removed (protein)
chain: MKLLSSIEQACDICRLKKLKCSKEKPKCAKCLKNNWECRYSPKTKRSPLTRAHLTEVESRLERLEQLFLLIFPREDLDMILKMDSLQDIKALLTGLFVQDNVNKDAVTDRLASVETDMPLTLRQHRISATSSSEESSNKGQRQLTVSIRGNARDLSLVPDCFRSISHLDLSFLSPWGHTLLASLPIDHQNLLALRLKFCFPFVESLNVYTRSPSSLELLLPQWPRIRHIKLLRWHQRASQIPTGGDFVPIFEHCGGFLESLDLSNFYHWTEDLPPVLLRYADVAARLTRLDLLTASFTEGYKSSEIVSITKSCPNLKTFRVACTFDPRYFEFVGDETLSAVATSSPKLTLLHMVDTASLANPRAIPGTEAGDSAVTAGTLIEVFSGLPNLEELVLDVGKDVKHSGVALEALNSKCKKLRVLKLGQFQGVCSATEWRRLDGVALCGGLQSLSIKNSGDLTDMGLVAIGRGCCKLTTFEIQGCENVTVDGLRTMVSLRSKTLTDVRISCCKNLDTAASLKAIEPICDRIKRLHIDCVWSGSEDEEVEGRVETSEADHEEEDDGYERSQKRCKYSFEEEHCSTSDVNGFCSEDRVWEKLEYLSLWINVGEFLTPLPMTGLDDCPNLEEIRIKIEGDCRGKRRPAEPEFGLSCLALYPKLSKMQLDCGDTIGFALTAPPMQMDLSLWERFFLTGIGSLSLSELDYWPPQDRDVNQRSLSLPGAGLLQECLTLRKLFIHGTAHEHFMNFLLRIPNLRDVQLRADYYPAPENDMSTEMRVGSCSRFEDQLNSRNIID
In the case of B4, the “binding (co-precipitation) with GST-ASK1” value (GST-ASK1 fusion protein) is reported as “fails to bind with GST-ASK1” and the “binding with ASK1 in yeast two-hybrid assay” value (ASK1(1-160)) is reported as “fails to bind with ASK1”.
